The values below come from PMC8750153.

The assay addresses PpPex11 H2 WT peptide (Pichia pastoris). The experiment in a line: pull-down; biotinylated peptides on streptavidin affinity gel as bait; soluble lysate fraction of His6-tagged GFP-Pex11s as prey, 1 h at room temperature; 50 mM Tris pH 8.0, 50 mM NaCl, 5 mM EDTA; anti-GFP immunoblot. (A western blot detects proteins with antibodies after separation by electrophoresis.)

His6-GFP-Pex11 (natural protein) had a fold binding against the H3 peptide of 2.5 fold.
